Test results: the supplement of paper PMC7877785
± gives the uncertainty stated by the source.

Experiment: self-splicing fitness, log relative to wild type (ln ratio); higher = more splicing; Tetrahymena group I intron in knt gene, E. coli kanamycin selection, DiMSum; sequences stand for … in CUCUCU…GGAGGGAAAAGUUAUCAGGCAUGCACCUGGUAGCUAGUCUUUAAACCAAUAGAUUGCAUCGGUUUAAAAGGCAAGACCGUCAAAUUGCGGGAAAGGGGUCAACAGCCGUUCAGUACCAAGUCUCAGGGGAAACUUUGAGAUGGCCUUGCAAAGGGUAUGGUAAUAAGCUGACGGACAUGGUCCUAACCACGCAGCCAAGUCCUAAGUCAACAGAUCUUCUGUUGAUAUGGAUGCAGUUCACAGACUAAAUGUCGGUCGGGGAAGAUGUAUUCUUCUCAUAAGAUAUAGUCGGACCUCUCCUUAAUGGGAGCUAGCGGAUGAAGUGAUGCAACACUGGAGCCGCUGGGAACUAAUUUGUAUGCGAAAGUAUAUUGAUUAGUUUUGGAGUACUCGUGGUCG
In short: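 Colonies from six replicate transformations of E. coli BL21(DE3) were pooled and amplicon-sequenced on an Illumina HiSeq 2500. The library placed an intron with all eight P1ex-region nucleotides randomised inside the knt kanamycin-resistance gene on pET-22b(+), and cells grew overnight at 37°C or 30°C on LB agar with or without 25 μg/mL kanamycin (plus 100 μg/mL carbenicillin, 50 μM IPTG, 0.2% rhamnose). Fitness is the DiMSum error-weighted combination of wild-type-normalised replicate fold changes, kanamycin versus none.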

Row | Sequence | self-splicing fitness (ln) (30 °C) | self-splicing fitness (ln) (37 °C)
1 | GUUCAGCAAUAUUACGAUUA | -0.665 ± 0.12 | -0.545 ± 0.097
2 | GAUAAGCAAUAUUACGCCCC | -2.27 ± 0.32 | -1.43 ± 0.33
3 | AGUGAGCAAUAUUACGUCCC | 0.506 ± 0.48 | 0.283 ± 0.36
4 | UUUGAGCAAUAUUACGGUAU | -4.23 ± 0.36 | -2.73 ± 0.38
5 | UUGAAGCAAUAUUACGACAA | 0.222 ± 0.087 | 0.511 ± 0.12
6 | AUUCAGCAAUAUUACGUGGC | -3.76 ± 0.14 | -2.21 ± 0.16
7 | AUCGAGCAAUAUUACGGACU | -0.916 ± 0.16 | -0.737 ± 0.19
8 | UGCGAGCAAUAUUACGGAUA | -2.36 ± 0.27 | -2.08 ± 0.36
9 | AGAAAGCAAUAUUACGUCCA | -1.06 ± 0.1 | -0.056 ± 0.13
10 | UAUAAGCAAUAUUACGGGGU | -2.93 ± 0.24 | -2.66 ± 0.23
11 | UAUCAGCAAUAUUACGUCUU | -1.65 ± 0.082 | -0.155 ± 0.091
12 | GUUGAGCAAUAUUACGACAA | -2.38 ± 0.33 | -2.54 ± 0.44
13 | GAAUAGCAAUAUUACGGCGC | 0.0238 ± 0.14 | 0.023 ± 0.16
14 | ACAGAGCAAUAUUACGCAAG | -3.99 ± 0.39 | -2.33 ± 0.25
15 | AUCUAGCAAUAUUACGAGGU | -5.03 ± 0.45 | -3.28 ± 0.43
16 | GCAUAGCAAUAUUACGAUUA | -1.47 ± 0.18 | 0.017 ± 0.15
17 | GUGCAGCAAUAUUACGGUGA | -0.753 ± 0.095 | 0.095 ± 0.12
18 | ACUCAGCAAUAUUACGCAGU | -3.55 ± 0.16 | -2.28 ± 0.17
19 | GCAUAGCAAUAUUACGGCCC | -0.542 ± 0.32 | -0.431 ± 0.37

Row | Sequence | self-splicing fitness (ln) (30 °C) | self-splicing fitness (ln) (37 °C)
20 | AGCGAGCAAUAUUACGUCUU | -2.73 ± 0.16 | -2.08 ± 0.18
21 | UUACAGCAAUAUUACGAGUU | -4.21 ± 0.21 | -2.18 ± 0.14
22 | GCACAGCAAUAUUACGAGCG | -1.16 ± 0.066 | -0.171 ± 0.077
23 | AGUCAGCAAUAUUACGGGCC | -2.98 ± 0.28 | -2.4 ± 0.35
24 | GACCAGCAAUAUUACGGUGG | -2.38 ± 0.077 | -0.875 ± 0.087
25 | GACUAGCAAUAUUACGGGAG | -0.663 ± 0.096 | 0.0641 ± 0.12
26 | GUCAAGCAAUAUUACGGCUC | -0.927 ± 0.057 | 0.181 ± 0.084
27 | GCGUAGCAAUAUUACGUAUA | -2.15 ± 0.26 | -1.52 ± 0.21
28 | GGCUAGCAAUAUUACGCUGU | -3.44 ± 0.29 | -1.19 ± 0.21
29 | GACUAGCAAUAUUACGUACU | -1.13 ± 0.094 | -0.372 ± 0.14
30 | CACAAGCAAUAUUACGAAGC | -4.44 ± 0.28 | -1.87 ± 0.19
31 | UCACAGCAAUAUUACGGGAU | -3.45 ± 0.23 | -2.36 ± 0.24
32 | AAGCAGCAAUAUUACGCCCC | -0.65 ± 0.15 | -0.107 ± 0.19
33 | UUUUAGCAAUAUUACGCCGG | -1.28 ± 0.18 | -0.833 ± 0.21
34 | GACUAGCAAUAUUACGGGUU | -3.92 ± 0.24 | -2.74 ± 0.27
35 | CUCCAGCAAUAUUACGCGGA | -3.39 ± 0.2 | -3.02 ± 0.22
36 | GAACAGCAAUAUUACGCAUU | -1.67 ± 0.095 | -0.812 ± 0.12
37 | AUGUAGCAAUAUUACGCUGA | -1.93 ± 0.15 | -1.29 ± 0.18
